{
  "source": "the supplement of paper PMC7125110",
  "parents": {"B1": {"name": "glmS ribozyme (parent)", "chain": "AUAAAAGCGCCAGAACUACAGAAAUGUAGUUGACGAGGAGGAGGUUUAUCGAAUUUUCGGCGGAUGCCUCCAAA"}},
  "note": "± gives the standard error. This sample holds only a part of the variants without activity.",
  "data": [
    {"variants_of": "B1", "assay": "self-cleavage kobs at 2500 uM GlcN6P; higher = faster cleavage; RNA array", "conditions": "with glucosamine-6-phosphate", "method_in_brief": "(§1)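 E. coli RNA polymerase transcribed barcoded ribozyme variants in situ on sequenced MiSeq chips, which were tracked via a hybridised Cy3 probe at 37 °C. Tiles were imaged over ~14 h after glucosamine-6-phosphate (40 μM to 10 mM) in HEPES/KCl/Mg(OAc)2 buffer was flowed in. Normalised per-tile medians were fit to one- or two-exponential decays for kobs, and kcat and KM came from weighted Michaelis–Menten fits.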", "units": {"self-cleavage kobs at 2500 uM GlcN6P": "s⁻¹"}, "values": [
      {"variant": "A15G G51U C61A", "self-cleavage kobs at 2500 uM GlcN6P": "< 1e-05"},
      {"variant": "U30A G32C C34G U55A", "self-cleavage kobs at 2500 uM GlcN6P": "< 1e-05"},
      {"variant": "C16U U30C G32U G35U U47G", "self-cleavage kobs at 2500 uM GlcN6P": "< 1e-05"},
      {"variant": "U31C A36G G41A G60U", "self-cleavage kobs at 2500 uM GlcN6P": "< 1e-05"},
      {"variant": "A15C U69G", "self-cleavage kobs at 2500 uM GlcN6P": "7.29e-05 ± 2.2e-05"},
      {"variant": "A15G C34G A42U C67G", "self-cleavage kobs at 2500 uM GlcN6P": "< 1e-05"},
      {"variant": "A15U A39G A52G", "self-cleavage kobs at 2500 uM GlcN6P": "0.000162 ± 6.5e-05"},
      {"variant": "C16A G41C C70U", "self-cleavage kobs at 2500 uM GlcN6P": "5.88e-05 ± 1.8e-05"},
      {"variant": "U31A A36U G59A", "self-cleavage kobs at 2500 uM GlcN6P": "< 1e-05"},
      {"variant": "C16U G37U A42G G51U", "self-cleavage kobs at 2500 uM GlcN6P": "< 1e-05"},
      {"variant": "A14U C67A C71U", "self-cleavage kobs at 2500 uM GlcN6P": "0.000265 ± 5.2e-05"},
      {"variant": "U30C C50G G63C", "self-cleavage kobs at 2500 uM GlcN6P": "0.00014 ± 5.2e-05"},
      {"variant": "U30G C34A G60U", "self-cleavage kobs at 2500 uM GlcN6P": "< 1e-05"},
      {"variant": "A14C U55A C68A", "self-cleavage kobs at 2500 uM GlcN6P": "6.41e-05 ± 2.5e-05"},
      {"variant": "U30G G44A", "self-cleavage kobs at 2500 uM GlcN6P": "6.16e-05 ± 1.7e-05"},
      {"variant": "G32C C50G U55A U56G U57C", "self-cleavage kobs at 2500 uM GlcN6P": "0.000162 ± 5.8e-05"},
      {"variant": "A15C U31C G41C U57G", "self-cleavage kobs at 2500 uM GlcN6P": "< 1e-05"},
      {"variant": "G29U A42U C68A C71U", "self-cleavage kobs at 2500 uM GlcN6P": "< 1e-05"},
      {"variant": "G26U A36C", "self-cleavage kobs at 2500 uM GlcN6P": "< 1e-05"},
      {"variant": "U30A G38A A39G C58A G63C C71A", "self-cleavage kobs at 2500 uM GlcN6P": "< 1e-05"},
      {"variant": "C16U A48G A53G", "self-cleavage kobs at 2500 uM GlcN6P": "9.32e-05 ± 2.7e-05"},
      {"variant": "C16G U30A C71U", "self-cleavage kobs at 2500 uM GlcN6P": "0.000103 ± 3.5e-05"},
      {"variant": "G29A G63C C68G", "self-cleavage kobs at 2500 uM GlcN6P": "0.000233 ± 6.2e-05"},
      {"variant": "C16A C50G C67A", "self-cleavage kobs at 2500 uM GlcN6P": "0.00038 ± 0.00013"},
      {"variant": "U31C A53C U55C", "self-cleavage kobs at 2500 uM GlcN6P": "0.000164 ± 5e-05"},
      {"variant": "A15U G32C A36C G40C", "self-cleavage kobs at 2500 uM GlcN6P": "< 1e-05"},
      {"variant": "U31C U49C U65G", "self-cleavage kobs at 2500 uM GlcN6P": "< 1e-05"},
      {"variant": "C16U G32A", "self-cleavage kobs at 2500 uM GlcN6P": "0.00201 ± 0.00037"},
      {"variant": "C16A U46C U56C G63U C70U", "self-cleavage kobs at 2500 uM GlcN6P": "< 1e-05"},
      {"variant": "G29C G41A", "self-cleavage kobs at 2500 uM GlcN6P": "7.06e-05 ± 3.1e-05"},
      {"variant": "U31C A36C G63U C68A", "self-cleavage kobs at 2500 uM GlcN6P": "0.000118 ± 4e-05"},
      {"variant": "G29U A39U C67G", "self-cleavage kobs at 2500 uM GlcN6P": "0.00033 ± 9.8e-05"},
      {"variant": "U31C C34A G37C", "self-cleavage kobs at 2500 uM GlcN6P": "< 1e-05"},
      {"variant": "G29A G43C G60C", "self-cleavage kobs at 2500 uM GlcN6P": "< 1e-05"},
      {"variant": "G32C G44A U45C", "self-cleavage kobs at 2500 uM GlcN6P": "< 1e-05"},
      {"variant": "C16U U45G U54G", "self-cleavage kobs at 2500 uM GlcN6P": "0.0032 ± 0.001"},
      {"variant": "A15U G37U G43C U56A C68G C71G", "self-cleavage kobs at 2500 uM GlcN6P": "< 1e-05"},
      {"variant": "U31G C68G C70G", "self-cleavage kobs at 2500 uM GlcN6P": "< 1e-05"},
      {"variant": "A15U U46C C70G", "self-cleavage kobs at 2500 uM GlcN6P": "8.21e-05 ± 2.2e-05"},
      {"variant": "A14U G43C A53U G59C", "self-cleavage kobs at 2500 uM GlcN6P": "< 1e-05"}
    ]},
    {"variants_of": "B1", "assay": "self-cleavage kobs at 10000 uM GlcN6P; higher = faster cleavage; RNA array", "conditions": "with glucosamine-6-phosphate", "method_in_brief": "as §1", "units": {"self-cleavage kobs at 10000 uM GlcN6P": "s⁻¹"}, "values": [
      {"variant": "A15U A39G A52G", "self-cleavage kobs at 10000 uM GlcN6P": "0.000571 ± 0.00013"},
      {"variant": "U30G G44A", "self-cleavage kobs at 10000 uM GlcN6P": "6.05e-05 ± 2e-05"},
      {"variant": "U30A G38A A39G C58A G63C C71A", "self-cleavage kobs at 10000 uM GlcN6P": "< 1e-05"},
      {"variant": "G29C G41A", "self-cleavage kobs at 10000 uM GlcN6P": "5.29e-05 ± 2.1e-05"},
      {"variant": "A15U U46C C70G", "self-cleavage kobs at 10000 uM GlcN6P": "3.23e-05 ± 1.5e-05"}
    ]}
  ]
}
